Reference: patent publication US20220033441A1 (LEIDOS, published 2022)

T1: human LAG3 (Human LAG3/FGL1 TR-FRET Binding Assay, BPS Bioscience) (human, UniProt P18627 23-450, limits assumed)
T1 construct: Kit reagent (BPS Bioscience); construct not described
T1 sequence (looked up): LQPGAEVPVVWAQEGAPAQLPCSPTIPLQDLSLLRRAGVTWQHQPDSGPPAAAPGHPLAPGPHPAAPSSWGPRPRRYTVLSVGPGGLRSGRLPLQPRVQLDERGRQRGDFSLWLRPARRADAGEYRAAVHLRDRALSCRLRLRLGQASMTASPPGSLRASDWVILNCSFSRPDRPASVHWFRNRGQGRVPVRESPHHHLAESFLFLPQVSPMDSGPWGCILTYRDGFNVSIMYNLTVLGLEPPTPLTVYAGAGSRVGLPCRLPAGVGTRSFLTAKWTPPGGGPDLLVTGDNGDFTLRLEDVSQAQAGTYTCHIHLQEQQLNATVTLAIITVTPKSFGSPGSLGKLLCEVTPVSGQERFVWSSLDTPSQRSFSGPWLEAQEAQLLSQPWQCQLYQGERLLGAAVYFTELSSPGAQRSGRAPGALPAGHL

T2: Tag1-LAG3 protein (UniProt P18627 23-450, limits assumed)
T2 construct: Kit reagent (Cisbio); Tag1 is not identified
T2 sequence (looked up): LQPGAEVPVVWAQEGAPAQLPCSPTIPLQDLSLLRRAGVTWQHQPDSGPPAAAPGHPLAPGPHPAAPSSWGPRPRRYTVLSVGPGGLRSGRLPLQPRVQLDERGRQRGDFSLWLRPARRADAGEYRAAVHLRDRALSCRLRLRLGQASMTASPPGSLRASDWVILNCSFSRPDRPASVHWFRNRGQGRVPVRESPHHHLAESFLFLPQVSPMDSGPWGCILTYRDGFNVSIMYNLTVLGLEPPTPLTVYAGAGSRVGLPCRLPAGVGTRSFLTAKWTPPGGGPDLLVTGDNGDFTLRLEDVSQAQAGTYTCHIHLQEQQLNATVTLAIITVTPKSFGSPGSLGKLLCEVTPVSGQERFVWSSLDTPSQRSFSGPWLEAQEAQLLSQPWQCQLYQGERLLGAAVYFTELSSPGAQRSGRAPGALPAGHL

B1: peptide 154 (peptide)
peptide: EHNREQVLEVMYSFQVNDYF
notes: 20-mer peptide
B2: peptide 6 (peptide)
peptide: ITMWGYDTDEDDNLVIYLTD
notes: 20-mer peptide
B3: peptide 69 (peptide)
peptide: AEFDHFDVGQTLDIASWDSY
notes: 20-mer peptide
B4: peptide 146 (peptide)
peptide: VFRMDWDEKEVRLYADDILL
notes: 20-mer peptide
B5: peptide 68 (peptide)
peptide: EDKAPWWQLDMEFEFRLDRV
notes: 20-mer peptide
B6: peptide 41 (peptide)
peptide: TVDADGDLYFDMEEGVLVFM
notes: 20-mer peptide
B7: Peptide LG56 (peptide)
peptide: HIQNWSYWLNQDMMNQQVWKS
notes: peptide positive control in the LAG3/FGL1 assay
B8: peptide 115 (peptide)
peptide: RTDRYTLSYIWTSDEWMLFD
notes: 20-mer peptide
B9: Peptide LG11 (peptide)
peptide: SAPWEPLHWPEDWWQGTGEW
notes: positive peptide control in the LAG3/MHC-II assay
B10: peptide 11 (peptide)
peptide: RERGGDDFAQDDYYVTIFYR
notes: 20-mer peptide
B11: peptide 62 (peptide)
peptide: LAGHYHYLTAGSQDIYEYND
notes: 20-mer peptide
B12: peptide 16 (peptide)
peptide: QGSTSGWGFGAMYELTYDVY
notes: 20-mer peptide
B13: Peptide 93 (peptide)
peptide: RVPAPVKEQVQKQYPNAGAI
notes: also called Low Activity Peptide
B14: peptide 141 (peptide)
peptide: GGVAIFLALFGGMVSSWEWD
notes: 20-mer peptide
B15: peptide 155 (peptide)
peptide: SLPYSNIYIELDSGYWNSES
notes: 20-mer peptide

Each binder was assayed against T1, human LAG3 (Human LAG3/FGL1 TR-FRET …) (assay: TR-FRET competition, inhibition of LAG3:FGL1 binding).
Description: Reaction mixes were incubated 1 hr at RT before development. After development, plate was read in a Tecan M1000 TR-FRET instrument.
Binder B1 has an IC50 of 7.2 µM. With B2 the IC50 was 2.6 µM. B3 showed an IC50 of 3.3 µM. For B4, the IC50 was 7.2 µM. B5 was tested, and the IC50 was roughly 21 µM. B6 gave an IC50 of 9.2 µM. Work on B7 yielded an IC50 of 14 µM. B8 was tested, and the IC50 was 9.1 µM.

Each binder was assayed against T2, Tag1-LAG3 protein (assay: HTRF (TR-FRET) competition, inhibition of LAG3:MHC-II binding).
Description: Anti-Tag1-Tb and anti-Tag2-XL665 antibodies were added and incubated for one hour, then simultaneous measurement of both […] cryptate and 665 nm acceptor emissions were read.
B9 was tested, and the IC50 was 18400 nM. B10 showed an IC50 of 353 nM. With B4 the IC50 was 199 nM. Binder B11 has an IC50 of 308 nM. For B5, the IC50 was 2940 nM. In the case of B12, the IC50 is reported as 220 nM. With B13 the IC50 was 63000 nM. B14 was tested, and the IC50 was 6690 nM. Binder B15 has an IC50 of 130 nM. Binder B8 has an IC50 of 154 nM.
